This note sets out measurements from PMC6785131.

Substrate in this data set: N[C@@H](CS)C(=O)O
Description: purified protein. The class given is biochemical, Salmonella enterica. Particulars: 2 mM ATP, 2 mM PPi, 10 mM MgCl2, 30 mM KCl, 100 mM HEPES pH 7.5, 37 °C, 25 nM enzyme, 50 μM-2 mM Cys.

B1: CysRS^chr (Salmonella enterica subsp. enterica serovar Typhimurium str. LT2) (protein)
chain: MLKIFNTLTRQKEEFKPIHAGEVGMYVCGITVYDLCHIGHGRTFVAFDVVARYLRFLGYKLKYVRNITDIDDKIIKRANENGESFVALVDRMIAEMHQDFDALNILRPDSEPRATHHIQEIIELTRTLIEKGHAYVADNGDVMFDVPTDPTYGQLSRQDLEQLQAGARVDVVDVKRNPMDFVLWKMSKEGEPSWPSPWGEGRPGWHIECSAMNCKQLGNHFDIHGGGSDLMFPHHENEIAQSTCAHDGEYVNYWMHSGMVMVDREKMSKSLGNFFTVRDVLKYYDAETVRYFLMSGHYRSQLNYSEENLKQARASLERLYTALRGTDKSAAPAGGEAFEARFVEAMNDDFNTPEAYSVLFDMAREVNRLKGEDMTAANAMASHLRKISGVLGLLEQEPDVFLQSGAQADDGEVAEIEALIQQRLDARKAKDWAAADAARDRLAEMGIILEDGPQGTTWRRK
notes: tag removal not mentioned
On to B1, for which the Michaelis-Menten constant (Km) is 14 ± 3 µM and the kcat amounted to 1.1 ± 0.2 s⁻¹.

What is called Km is the concentration of substrate that gives half-maximal velocity. Broadly, the kcat is the number of substrate molecules converted per active site and unit of time at saturation.
